What was measured:
Assay in all cases: cell-based or functional assay
[1] = target: Hemagglutinin of influenza virus A/Aichi/02/1968-PR8-X31 (H3N2) (Influenza A virus A/Aichi/02/1968-PR8-X31 (H3N2)) (UniProt P03437)
[2] = target: Hemagglutinin of influenza virus A/Philippines/01/1982 (H3N2) (Influenza A virus A/Philippines/01/1982 (H3N2))
[3] = target: Hemagglutinin of influenza virus A/Shanghai/01/2013-PR8 (H7N9) (Influenza A virus A/Shanghai/01/2013-PR8 (H7N9))

B1: H1H14612N2 (antibody, V domains shown)
VH: EVQLVESGGGLVKPGGSLRLSCAASGFSFSGFSMNWVRQAPGKGLEWVSSISTSGNYMYYADSVKGRFTISRDNAKKSFSLQMNSLRAEDSAIYYCARGGGYNWNLFDYWGQGSLVTVSS
VL: EIVLTQSPGTLSLSPGERATLSCRASQSLNSNYLAWYQQKPGQAPRLLIYGASSRATGIPDRFSGSGSGADFTLTISRLESEDFAVYYCQQYGNSPLTFGGGTKVEIK
- EC50, complement-dependent cytotoxicity of virus-infected MDCK cells [1]: 126 nM
- IC50 of neutralization, cell viability microneutralization assay on MDCK cells [1]: 5.7 nM
- maximum lysis, complement-dependent cytotoxicity of virus-infected MDCK cells [1]: 86.3%
- IC50 of neutralization, cell viability microneutralization assay on MDCK cells [2]: 37.6 nM
- IC50 of neutralization, cell viability microneutralization assay on MDCK cells [3]: > 6670 nM

Source: US20210371505A1
